Measurements reported in paper PMC11885566.

Target: stable soluble Omicron EG.5.1 (6P) S trimer (SARS-CoV-2)
Experiment: cryo-EM structure

With “stable soluble Omicron EG.5.1 (6P) S trimer (domain or fragment)” the stoichiometry N was 3.
